Among the data in paper PMC11746154 are response (normalized β-gal units) values, retold here.

First the molecules themselves.
B1: LexA-Rec102 [S. cerevisiae] / Gal4AD-Spo11 [S. cerevisiae] (parent)
chain 1: MALEGLRKKYKTRQELVKALTPKRRSIHLNSNGHSNGTPCSNADVLAHIKHFLSLAANSLEQHQQPISIVFQNKKKKGDTSSPDIHTTLDFPLNGPHLCTHQFKLKRCAILLNLLKVVMEKLPLGKNTTVRDIFYSNVELFQRQANVVQWLDVIRFNFKLSPRKSLNIIPAQKGLVYSPFPIDIYDNILTCENEPKMQKQTIFPGKPCLIPFFQDDAVIKLGTTSMCNIVIVEKEAVFTKLVNNYHKLSTNTMLITGKGFPDFLTRLFLKKLEQYCSKLISDCSIFTDADPYGISIALNYTHSNERNAYICTMANYKGIRITQVLAQNNEVHNKSIQLLSLNQRDYSLAKNLIASLTANSWDIATSPLKNVIIECQREIFFQKKAEMNEIDARIFEYK
chain 2: MARDITFLTVFLESCGAVNNDEAGKLLSAWTSTVRIEGPESTDSNSLYIPLLPPGMLKIKLNFKMNDRLVTEEQELFTKLREIVGSSIRFWEEQLFYQVQDVSTIENHVILSLKCTILTDAQISTFISKPRELHTHAKGYPEIYYLSELSTTVNFFSKEGNYVEISQVIPHFNEYFSSLIVSQLEFEYPMVFSMISRLRLKWQQSSLAPISYALTSNSVLLPIMLNMIAQDKSSTTAYQILCRRRGPPIQNFQIFSLPAVTYNK
B2: Gal4AD-Spo11 [S. cerevisiae] / Rec104-LexA [S. cerevisiae] (parent)
chain 1: B1 chain 1
chain 2: MSIEEEDTNKITCTQDFLHQYFVTERVSIQFGLNNKTVKRINKDEFDKAVNCIMSWTNYPKPGLKRTASTYLLSNSFKKSATVSLPFILGDPVCMPKRVESNNNDTCLLYSDTLYDDPLIQRNDQAGDEIEDEFSFTLLRSEVNEIRPISSSSTAQILQSDYSALMYERQASNGSIFQFSSP

One assay covers variants of B1. Nature of the assay: Y2H quantitative β-galactosidase assay. Conditions: with Gal4AD-Spo11 [S. cerevisiae]; parent: 1; read off a plot.
On to chain 2 MARDITFLTVFLESCGAVNNDEAGKLLSAWTSTVRIEGPESTDSNSLYIPLLPPGMLKIKLNFKMNDRLVTEEQELFTKLREIVGSSIRFWEEQLFYQVQDVSTIENHVILSLKCTILTDAQISTFISKPRELHTHAKGYPEIYYLSELSTTVNFFSKEGNYVEISQVIPHFNEYFSSLIVSQLEFEYPMVFSMISRLRLKWQQSSAAPISYALTSNSVLLPIMLNMIAQDKSSTTAYQILCRRRGPPIQNFQIFSLPAVTYNK [chain 2 L207A], for which the response (normalized β-gal units) was found to be 2. Same read-out and setting: the result for chain 2 MARDITFLTVFLESCGAVNNDEAGKLLSAWTSTVRIEGPESTDSNSLYIPLLPPGMLKIKLNFKMNDRLVTEEQELFTKLREIVGSSIRFWEEQLFYQVQDVSTIENHVILSLKCTILTDAQISTFISKPRELHTHAKGYPEIYYLSELSTTVNFFSKEGNYVEISQVIPHFNEYFSSLIVSQLEFEYPMVFSMASRLRLKWQQSSLAPISYALTSNSVLLPIMLNMIAQDKSSTTAYQILCRRRGPPIQNFQIFSLPAVTYNK [chain 2 I195A] reads 0.2.

In another assay the parent is B2. Kind of assay: Y2H β-galactosidase assay. The conditions noted are these: with Rec104-LexA [S. cerevisiae]; parent: 1; read off a plot.
In the case of chain 1 MALEGLRAKYKTRQELVKALTPKRRSIHLNSNGHSNGTPCSNADVLAHIKHFLSLAANSLEQHQQPISIVFQNKKKKGDTSSPDIHTTLDFPLNGPHLCTHQFKLKRCAILLNLLKVVMEKLPLGKNTTVRDIFYSNVELFQRQANVVQWLDVIRFNFKLSPRKSLNIIPAQKGLVYSPFPIDIYDNILTCENEPKMQKQTIFPGKPCLIPFFQDDAVIKLGTTSMCNIVIVEKEAVFTKLVNNYHKLSTNTMLITGKGFPDFLTRLFLKKLEQYCSKLISDCSIFTDADPYGISIALNYTHSNERNAYICTMANYKGIRITQVLAQNNEVHNKSIQLLSLNQRDYSLAKNLIASLTANSWDIATSPLKNVIIECQREIFFQKKAEMNEIDARIFEYK [chain 1 K8A], the response (normalized β-gal units) was 0.72.

As to chain 1 MALEGLAKKYKTRQELVKALTPKRRSIHLNSNGHSNGTPCSNADVLAHIKHFLSLAANSLEQHQQPISIVFQNKKKKGDTSSPDIHTTLDFPLNGPHLCTHQFKLKRCAILLNLLKVVMEKLPLGKNTTVRDIFYSNVELFQRQANVVQWLDVIRFNFKLSPRKSLNIIPAQKGLVYSPFPIDIYDNILTCENEPKMQKQTIFPGKPCLIPFFQDDAVIKLGTTSMCNIVIVEKEAVFTKLVNNYHKLSTNTMLITGKGFPDFLTRLFLKKLEQYCSKLISDCSIFTDADPYGISIALNYTHSNERNAYICTMANYKGIRITQVLAQNNEVHNKSIQLLSLNQRDYSLAKNLIASLTANSWDIATSPLKNVIIECQREIFFQKKAEMNEIDARIFEYK [chain 1 R7A], the response (normalized β-gal units) is 0.85. Turning to chain 1 MALEGLDKKYKTRQELVKALTPKRRSIHLNSNGHSNGTPCSNADVLAHIKHFLSLAANSLEQHQQPISIVFQNKKKKGDTSSPDIHTTLDFPLNGPHLCTHQFKLKRCAILLNLLKVVMEKLPLGKNTTVRDIFYSNVELFQRQANVVQWLDVIRFNFKLSPRKSLNIIPAQKGLVYSPFPIDIYDNILTCENEPKMQKQTIFPGKPCLIPFFQDDAVIKLGTTSMCNIVIVEKEAVFTKLVNNYHKLSTNTMLITGKGFPDFLTRLFLKKLEQYCSKLISDCSIFTDADPYGISIALNYTHSNERNAYICTMANYKGIRITQVLAQNNEVHNKSIQLLSLNQRDYSLAKNLIASLTANSWDIATSPLKNVIIECQREIFFQKKAEMNEIDARIFEYK [chain 1 R7D], the response (normalized β-gal units) stood at 0.24.

Staying with this assay, now noted: with Gal4AD-Spo11 [S. cerevisiae]; parent: 1; read off a plot.
On to chain 2 MSIEEEDTNKITCTQDFLHQYAVTERVSIQFGLNNKTVKRINKDEFDKAVNCIMSWTNYPKPGLKRTASTYLLSNSFKKSATVSLPFILGDPVCMPKRVESNNNDTCLLYSDTLYDDPLIQRNDQAGDEIEDEFSFTLLRSEVNEIRPISSSSTAQILQSDYSALMYERQASNGSIFQFSSP [chain 2 F22A], for which the response (normalized β-gal units) came out at 0.93.

On to chain 2 MSIEEEDTNKITCTQDFLHQAFVTERVSIQFGLNNKTVKRINKDEFDKAVNCIMSWTNYPKPGLKRTASTYLLSNSFKKSATVSLPFILGDPVCMPKRVESNNNDTCLLYSDTLYDDPLIQRNDQAGDEIEDEFSFTLLRSEVNEIRPISSSSTAQILQSDYSALMYERQASNGSIFQFSSP [chain 2 Y21A], for which the response (normalized β-gal units) is 0.02.

Regarding chain 2 MSIEEEDTNKITCTQAFLHQYFVTERVSIQFGLNNKTVKRINKDEFDKAVNCIMSWTNYPKPGLKRTASTYLLSNSFKKSATVSLPFILGDPVCMPKRVESNNNDTCLLYSDTLYDDPLIQRNDQAGDEIEDEFSFTLLRSEVNEIRPISSSSTAQILQSDYSALMYERQASNGSIFQFSSP [chain 2 D16A], the response (normalized β-gal units) amounted to 1.1. As for chain 2 MSIEEEDTNKITCTQRFLHQYFVTERVSIQFGLNNKTVKRINKDEFDKAVNCIMSWTNYPKPGLKRTASTYLLSNSFKKSATVSLPFILGDPVCMPKRVESNNNDTCLLYSDTLYDDPLIQRNDQAGDEIEDEFSFTLLRSEVNEIRPISSSSTAQILQSDYSALMYERQASNGSIFQFSSP [chain 2 D16R], the response (normalized β-gal units) was 0.53.

With chain 2 MSIEEEDTNKITCTQDFLHAYFVTERVSIQFGLNNKTVKRINKDEFDKAVNCIMSWTNYPKPGLKRTASTYLLSNSFKKSATVSLPFILGDPVCMPKRVESNNNDTCLLYSDTLYDDPLIQRNDQAGDEIEDEFSFTLLRSEVNEIRPISSSSTAQILQSDYSALMYERQASNGSIFQFSSP [chain 2 Q20A], the response (normalized β-gal units) stood at 0.75.
